Results on five molecules are retold here after patent US20040018971A1.

One experiment addresses T1, HLA-DRB5*0101 (human).
T1 chain 1: not shown
T1 chain 2: not shown
Nature of the experiment: competition with 125I-labelled standard peptide, purified HLA-DR, gel filtration. Conditions: remark: other sources report otherwise.

The next experiment addresses T2, HLA-DR3 (human).
T2 chain 1: not shown
T2 chain 2: not shown
Nature of the experiment: competitive inhibition of 125I-labeled probe peptide binding to purified HLA-DR3. Conditions: remark: other sources report otherwise.

Experiment [1] has as its target HLA-A*0301 (purified HLA class I molecule) (human). Nature of the experiment: competition with 125I-labelled probe peptide for purified HLA-A*0301, gel filtration. To be noted: remark: other sources report otherwise; scale: ratio.
The target in experiment [2] is HLA-A*2401 (purified HLA class I molecule) (human). The experiment can be described thus: competition with 125I-labelled probe peptide for purified HLA, gel filtration.
In experiment [3] the target is HLA-A*0101 (human). The experiment can be described thus: competition with 125I-labelled probe peptide for purified HLA-A*0101, gel filtration. To be noted: remark: other sources report otherwise; scale: ratio.
The target of the next experiment is HLA-A*1101 (human). Nature of the experiment: competition with 125I-labelled probe peptide on purified HLA-A*1101, relative to standard peptide 940.06. To be noted: remark: other sources report otherwise; scale: ratio.
Another experiment has as its target HLA-A*0301 (human). The experiment can be described thus: competition with 125I-labelled probe peptide on purified HLA-A*0301, gel filtration; ratio to standard peptide 941.12. To be noted: remark: other sources report otherwise.
Experiment [4] addresses HLA-A*0101 (human). Nature of the experiment: competition with 125I-labelled probe peptide for purified HLA-A*0101, gel filtration; ratio = IC50 of standard peptide 944.02 / IC50 of test peptide. Conditions: remark: other sources report otherwise.
The target of experiment [5] is HLA-A*0101 (human). The experiment can be described thus: competition with a 125I-labelled probe peptide for purified HLA-A*0101, gel filtration; ratio against the A*0101 standard peptide 944.02 [..] (25 nM). Conditions: remark: other sources report otherwise.
Another experiment concerns the target HLA-B*0702 (human). The experiment can be described thus: inhibition of 125I standard peptide binding to purified HLA. To be noted: remark: other sources report otherwise.
Experiment [6] deals with HLA-A*0201 (purified HLA class I molecule) (human). The experiment can be described thus: competition with 125I-labelled standard peptide for purified HLA, gel filtration. To be noted: remark: other sources report otherwise.

In the case of CWMIDSECRPRFREL [Her2/neu.958], the IC50 in the experiment with HLA-DRB5*0101 (human) is 1330 nM; in the experiment with HLA-DR3 (human) it was below 1000 nM.
For the molecule CMQIAKGMSY [HER2/neu peptide, position 826, 10 amino acids (…)], in experiment [1], the relative binding ratio amounted to 0.0003.
Regarding VMAGVGSPY [HER2/neu peptide, position 773, 9 amino acids], the relative binding ratio (IC50 of standard peptide / IC50 of test peptide) in experiment [2] amounted to 0.0001; in the experiment with HLA-A*0101 (human) [5], 0.04. Moreover, the relative binding ratio with HLA-A*0101 (human) [3] is 0.04; with HLA-A*1101 (human), 0.0079; in the experiment with HLA-A*0101 (human) [4] it was 0.04. In addition, the relative binding ratio (IC50 of standard peptide / IC50 of test peptide) (relative binding ratio) with HLA-A*0301 (human) is 0.058.
Take PPSPREGPLPA [HER2/neu peptide, position 1149, 11 amino acids]: the relative binding ratio (ratio to standard peptide) with HLA-B*0702 (human) stood at 0.45.
Consider QLFRNPHQAL [HER2/neu peptide, position 484, 10 amino acids], for which the relative binding ratio (IC50 of standard peptide / IC50 of test peptide) in [6] turned out to be 0.0003.
